“Also recorded” adds a separate entry of the source.
Legend:
[1] = format: in vitro ADME, feline
Description: For plasma extraction, 100 uL of plasma was precipitated by addition of 200 uL methanol in a 1.5 mL protein LoBind eppendorf tube. After vortexing for 10 seconds, the precipitate was pelleted by centrifugation at 13,000 rpm for 15 minutes at 10° C. using a benchtop centrifuge. The supernatant was transferred to a limited volume glass HPLC vial and analyzed by LC/MS as described in the following examples.
To characterize the fsNT-proBNP stable degradation products present after incubation in feline plasma, fsNT-proBNP was added to feline plasma at 1, 5, and 10 μg/mL and incubated at room temperature. At 0, 24, 48, 96, and 192 hours, 100 μL aliquots of the plasma were collected and combined with 200 μL of methanol to form a precipitate. After centrifugation, the supernatant was analyzed for stable peptides by LC/MS as described in Example 1.
The relative abundance of several fragments from the N-terminal, capture, and C-terminal regions were evaluated over time.

feline plasma = settings: room temperature, up to 192 hours

In the case of “ASEASAIQELLDGLRDTVSEL (Preferred Feline NT-proBNP N-Terminal Peptide Plasma Degradent) [SEQ ID NO: 5]”, the “prevalence of polypeptide fragments in plasma” value (from here on “prevalence”) [1] is reported as “most prevalent”.

With “HPLGGPGPASEASAIQELLDGLRDTVSELQEAQMALGPLQQGHSPAESWEAQEEPPARVLAPHDNVLRALRRLGSSKM” the fragment found (feline plasma) was “ASEASAIQELLDGLRDTVSEL, major; also recorded: DGLRDTVSEL; also recorded: LDGLRDTVSELQEAQM; also recorded: LGPLQQGHSPAESWEAQEEPPAR; also recorded: LGPLQQGHSPAESWEAQEEPPARVLAPHDNVLR, major; also recorded: LQQGHSPAESWEAQEEPPARVLAPHDNVLR, major; also recorded: VLAPHDNVLR”.

In the case of “LGPLQQGHSPAESWEAQEEPPARVLAPHDNVLR (Preferred Feline NT-proBNP C-Terminal Peptide Plasma Degradent) [SEQ ID NO: 9]”, the “prevalence” value [1] is reported as “most prevalent”.

With “LQQGHSPAESWEAQEEPPARVLAPHDNVLR (Preferred Feline NT-proBNP C-Terminal Peptide Plasma Degradent) [SEQ ID NO:10]” the “prevalence” value [1] was “most prevalent”.
